Consider 8 molecules from patent publication US11833164B2, “Methods of treating Fabry disease in patients having a mutation in the GLA gene” (Amicus Therapeutics, Inc., priority 2019, dated 2023).

The subject of this assay is mutant form of α-Gal A expressed in HEK-293 cells. Nature of the assay: HEK assay (GLP HEK / Migalastat Amenability Assay): α-Gal A activity in lysates of transiently transfected HEK-293 cells incubated with or without 10 μM migalastat. It counts as cell-based, human. Particulars: for Absolute increase (% WT): 10 μM migalastat versus baseline; for Relative increase: 10 μM migalastat α-Gal A activity relative to baseline; for 10 μM migalastat α-Gal A activity (% WT): 5 days; for 10 μM migalastat α-Gal A activity (% WT) / Baseline α-Gal A activity (% WT): percentage of baseline wild-type α-Gal A activity; for 10 μM migalastat α-Gal A activity (% WT) / Baseline α-Gal A activity (% WT) / Baseline α-Gal A activity / 10 μM migalastat α-Gal A activity: mean ± SEM; for Baseline α-Gal A activity (% WT): absence of migalastat; for Baseline α-Gal A activity / 10 μM migalastat α-Gal A activity: lysates of HEK-293 cells transfected with the mutant form; for Baseline α-Gal A activity: incubated 5 days in the absence of migalastat; for 10 μM migalastat α-Gal A activity: incubated 5 days with 10 μM migalastat. In a few lines: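 HEK-293 cells transiently transfected with mutant α-Gal A and incubated with or without 10 μM migalastat; lysate activity given as nmol free 4-MU released per mg protein per hour. Values are mean±SEM.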

B1: H125N (protein)
chain: MQLRNPELHLGCALALRFLALVSWDIPGARALDNGLARTPTMGWLHWERFMCNLDCQEEPDSCISEKLFMEMAELMVSEGWKDAGYEYLCIDDCWMAPQRDSEGRLQADPQRFPHGIRQLANYVNSKGLKLGIYADVGNKTCAGFPGSFGYYDIDAQTFADWGVDLLKFDGCYCDSLENLADGYKHMSLALNRTGRSIVYSCEWPLYMWPFQKPNYTEIRQYCNHWRNFADIDDSWKSIKSILDWTSFNQERIVDVAGPGGWNDPDMLVIGNFGLSWNQQVTQMALWAIMAAPLFMSNDLRHISPQAKALLQDKDVIAINQDPLGKQGYQLRQGDNFEVWERPLSGLAWAVAMINRQEIGGPRSYTIAVASLGKGVACNPACFITQLLPVKRKLGFYEWTSRLRSHINPTGTVLLQLENTMQMSLKDLL
Consider B1, for which the “Absolute increase (% WT)” value is listed as 14.9 % WT, the Relative increase amounted to 1.4, the “10 μM migalastat α-Gal A activity (% WT)” value is listed as 48.4 ± 2.7 % WT and the “Baseline α-Gal A activity (% WT)” value was found to be 33.5 ± 1.8 % WT. Besides, the “Baseline α-Gal A activity” value was 14162 ± 994 nmol/mg/h and the “10 μM migalastat α-Gal A activity” value was 20228 ± 1240 nmol/mg/h.

B2: K127E (protein)
chain: MQLRNPELHLGCALALRFLALVSWDIPGARALDNGLARTPTMGWLHWERFMCNLDCQEEPDSCISEKLFMEMAELMVSEGWKDAGYEYLCIDDCWMAPQRDSEGRLQADPQRFPHGIRQLANYVHSEGLKLGIYADVGNKTCAGFPGSFGYYDIDAQTFADWGVDLLKFDGCYCDSLENLADGYKHMSLALNRTGRSIVYSCEWPLYMWPFQKPNYTEIRQYCNHWRNFADIDDSWKSIKSILDWTSFNQERIVDVAGPGGWNDPDMLVIGNFGLSWNQQVTQMALWAIMAAPLFMSNDLRHISPQAKALLQDKDVIAINQDPLGKQGYQLRQGDNFEVWERPLSGLAWAVAMINRQEIGGPRSYTIAVASLGKGVACNPACFITQLLPVKRKLGFYEWTSRLRSHINPTGTVLLQLENTMQMSLKDLL
On to B2, for which the “Absolute increase (% WT)” value is recorded as 6.4 % WT, the Relative increase came to 1.2, the “10 μM migalastat α-Gal A activity (% WT)” value is recorded as 32.2 ± 2.3 % WT and the “Baseline α-Gal A activity (% WT)” value is on record as 25.8 ± 1.1 % WT. Moreover, the “Baseline α-Gal A activity” value is 8968 ± 519 nmol/mg/h and the “10 μM migalastat α-Gal A activity” value stood at 11003 ± 768 nmol/mg/h.

B3: S126C (protein)
chain: MQLRNPELHLGCALALRFLALVSWDIPGARALDNGLARTPTMGWLHWERFMCNLDCQEEPDSCISEKLFMEMAELMVSEGWKDAGYEYLCIDDCWMAPQRDSEGRLQADPQRFPHGIRQLANYVHCKGLKLGIYADVGNKTCAGFPGSFGYYDIDAQTFADWGVDLLKFDGCYCDSLENLADGYKHMSLALNRTGRSIVYSCEWPLYMWPFQKPNYTEIRQYCNHWRNFADIDDSWKSIKSILDWTSFNQERIVDVAGPGGWNDPDMLVIGNFGLSWNQQVTQMALWAIMAAPLFMSNDLRHISPQAKALLQDKDVIAINQDPLGKQGYQLRQGDNFEVWERPLSGLAWAVAMINRQEIGGPRSYTIAVASLGKGVACNPACFITQLLPVKRKLGFYEWTSRLRSHINPTGTVLLQLENTMQMSLKDLL
Regarding B3, the “Absolute increase (% WT)” value came to 7.5 % WT, the Relative increase was found to be 1.4, the “10 μM migalastat α-Gal A activity (% WT)” value is recorded as 24.5 ± 1.5 % WT and the “Baseline α-Gal A activity (% WT)” value is 16.9 ± 1.1 % WT. Further, the “Baseline α-Gal A activity” value turned out to be 7046 ± 488 nmol/mg/h and the “10 μM migalastat α-Gal A activity” value was 10050 ± 554 nmol/mg/h.

B4: G128A (protein)
chain: MQLRNPELHLGCALALRFLALVSWDIPGARALDNGLARTPTMGWLHWERFMCNLDCQEEPDSCISEKLFMEMAELMVSEGWKDAGYEYLCIDDCWMAPQRDSEGRLQADPQRFPHGIRQLANYVHSKALKLGIYADVGNKTCAGFPGSFGYYDIDAQTFADWGVDLLKFDGCYCDSLENLADGYKHMSLALNRTGRSIVYSCEWPLYMWPFQKPNYTEIRQYCNHWRNFADIDDSWKSIKSILDWTSFNQERIVDVAGPGGWNDPDMLVIGNFGLSWNQQVTQMALWAIMAAPLFMSNDLRHISPQAKALLQDKDVIAINQDPLGKQGYQLRQGDNFEVWERPLSGLAWAVAMINRQEIGGPRSYTIAVASLGKGVACNPACFITQLLPVKRKLGFYEWTSRLRSHINPTGTVLLQLENTMQMSLKDLL
Turning to B4, the “Absolute increase (% WT)” value was determined as 5.1 % WT, the Relative increase was found to be 1.2, the “10 μM migalastat α-Gal A activity (% WT)” value worked out at 25.9 ± 2.3 % WT and the “Baseline α-Gal A activity (% WT)” value turned out to be 20.8 ± 2 % WT. Further, the “Baseline α-Gal A activity” value stood at 8484 ± 872 nmol/mg/h and the “10 μM migalastat α-Gal A activity” value was found to be 10204 ± 703 nmol/mg/h.

B5: S126I (protein)
chain: MQLRNPELHLGCALALRFLALVSWDIPGARALDNGLARTPTMGWLHWERFMCNLDCQEEPDSCISEKLFMEMAELMVSEGWKDAGYEYLCIDDCWMAPQRDSEGRLQADPQRFPHGIRQLANYVHIKGLKLGIYADVGNKTCAGFPGSFGYYDIDAQTFADWGVDLLKFDGCYCDSLENLADGYKHMSLALNRTGRSIVYSCEWPLYMWPFQKPNYTEIRQYCNHWRNFADIDDSWKSIKSILDWTSFNQERIVDVAGPGGWNDPDMLVIGNFGLSWNQQVTQMALWAIMAAPLFMSNDLRHISPQAKALLQDKDVIAINQDPLGKQGYQLRQGDNFEVWERPLSGLAWAVAMINRQEIGGPRSYTIAVASLGKGVACNPACFITQLLPVKRKLGFYEWTSRLRSHINPTGTVLLQLENTMQMSLKDLL
As for B5, the “Absolute increase (% WT)” value is on record as 16.0 % WT, the Relative increase is 1.2, the “10 μM migalastat α-Gal A activity (% WT)” value is reported as 85.9 ± 5.3 % WT and the “Baseline α-Gal A activity (% WT)” value came to 69.8 ± 5.1 % WT. The “Baseline α-Gal A activity” value stood at 28685 ± 1923 nmol/mg/h and the “10 μM migalastat α-Gal A activity” value was found to be 35340 ± 2027 nmol/mg/h.

B6: H125R (protein)
chain: MQLRNPELHLGCALALRFLALVSWDIPGARALDNGLARTPTMGWLHWERFMCNLDCQEEPDSCISEKLFMEMAELMVSEGWKDAGYEYLCIDDCWMAPQRDSEGRLQADPQRFPHGIRQLANYVRSKGLKLGIYADVGNKTCAGFPGSFGYYDIDAQTFADWGVDLLKFDGCYCDSLENLADGYKHMSLALNRTGRSIVYSCEWPLYMWPFQKPNYTEIRQYCNHWRNFADIDDSWKSIKSILDWTSFNQERIVDVAGPGGWNDPDMLVIGNFGLSWNQQVTQMALWAIMAAPLFMSNDLRHISPQAKALLQDKDVIAINQDPLGKQGYQLRQGDNFEVWERPLSGLAWAVAMINRQEIGGPRSYTIAVASLGKGVACNPACFITQLLPVKRKLGFYEWTSRLRSHINPTGTVLLQLENTMQMSLKDLL
As for B6, the “Absolute increase (% WT)” value is 23.0 % WT, the Relative increase was 1.6, the “10 μM migalastat α-Gal A activity (% WT)” value is reported as 59.1 ± 1.9 % WT and the “Baseline α-Gal A activity (% WT)” value was determined as 36 ± 1.2 % WT. In addition, the “Baseline α-Gal A activity” value is 14738 ± 699 nmol/mg/h and the “10 μM migalastat α-Gal A activity” value was 24004 ± 987 nmol/mg/h.

B7: L129V (protein)
chain: MQLRNPELHLGCALALRFLALVSWDIPGARALDNGLARTPTMGWLHWERFMCNLDCQEEPDSCISEKLFMEMAELMVSEGWKDAGYEYLCIDDCWMAPQRDSEGRLQADPQRFPHGIRQLANYVHSKGVKLGIYADVGNKTCAGFPGSFGYYDIDAQTFADWGVDLLKFDGCYCDSLENLADGYKHMSLALNRTGRSIVYSCEWPLYMWPFQKPNYTEIRQYCNHWRNFADIDDSWKSIKSILDWTSFNQERIVDVAGPGGWNDPDMLVIGNFGLSWNQQVTQMALWAIMAAPLFMSNDLRHISPQAKALLQDKDVIAINQDPLGKQGYQLRQGDNFEVWERPLSGLAWAVAMINRQEIGGPRSYTIAVASLGKGVACNPACFITQLLPVKRKLGFYEWTSRLRSHINPTGTVLLQLENTMQMSLKDLL
Take B7: the “Absolute increase (% WT)” value stood at 16.4 % WT, the Relative increase is recorded as 1.5, the “10 μM migalastat α-Gal A activity (% WT)” value was determined as 48.1 ± 4.5 % WT and the “Baseline α-Gal A activity (% WT)” value is given as 31.8 ± 3.3 % WT. Also, the “Baseline α-Gal A activity” value was 12614 ± 1265 nmol/mg/h and the “10 μM migalastat α-Gal A activity” value amounted to 19488 ± 1603 nmol/mg/h.

B8: K130M (protein)
chain: MQLRNPELHLGCALALRFLALVSWDIPGARALDNGLARTPTMGWLHWERFMCNLDCQEEPDSCISEKLFMEMAELMVSEGWKDAGYEYLCIDDCWMAPQRDSEGRLQADPQRFPHGIRQLANYVHSKGLMLGIYADVGNKTCAGFPGSFGYYDIDAQTFADWGVDLLKFDGCYCDSLENLADGYKHMSLALNRTGRSIVYSCEWPLYMWPFQKPNYTEIRQYCNHWRNFADIDDSWKSIKSILDWTSFNQERIVDVAGPGGWNDPDMLVIGNFGLSWNQQVTQMALWAIMAAPLFMSNDLRHISPQAKALLQDKDVIAINQDPLGKQGYQLRQGDNFEVWERPLSGLAWAVAMINRQEIGGPRSYTIAVASLGKGVACNPACFITQLLPVKRKLGFYEWTSRLRSHINPTGTVLLQLENTMQMSLKDLL
On to B8, for which the “Absolute increase (% WT)” value was found to be 10.9 % WT, the Relative increase is recorded as 1.3, the “10 μM migalastat α-Gal A activity (% WT)” value amounted to 41.4 ± 2.6 % WT and the “Baseline α-Gal A activity (% WT)” value stood at 30.5 ± 2.1 % WT. For the same molecule, the “Baseline α-Gal A activity” value was 12335 ± 890 nmol/mg/h and the “10 μM migalastat α-Gal A activity” value was found to be 16496 ± 921 nmol/mg/h.
